Patent US20120322150

Experiments:
MBP-BZR1, Q8S307 = target: T1, MBP-BZR1, Q8S307
T1 chain: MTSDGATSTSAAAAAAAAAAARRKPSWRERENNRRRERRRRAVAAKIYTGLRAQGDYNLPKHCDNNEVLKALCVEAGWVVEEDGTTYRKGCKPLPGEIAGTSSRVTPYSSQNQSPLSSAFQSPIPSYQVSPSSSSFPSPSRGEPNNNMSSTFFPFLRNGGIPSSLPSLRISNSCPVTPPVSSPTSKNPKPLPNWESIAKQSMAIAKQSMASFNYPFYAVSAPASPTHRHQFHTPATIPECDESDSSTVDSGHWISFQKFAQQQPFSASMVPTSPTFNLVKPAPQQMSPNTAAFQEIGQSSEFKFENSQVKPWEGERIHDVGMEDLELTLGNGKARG

GST-BIN2, Q39011 = target: T2, GST-BIN2, Q39011
T2 chain: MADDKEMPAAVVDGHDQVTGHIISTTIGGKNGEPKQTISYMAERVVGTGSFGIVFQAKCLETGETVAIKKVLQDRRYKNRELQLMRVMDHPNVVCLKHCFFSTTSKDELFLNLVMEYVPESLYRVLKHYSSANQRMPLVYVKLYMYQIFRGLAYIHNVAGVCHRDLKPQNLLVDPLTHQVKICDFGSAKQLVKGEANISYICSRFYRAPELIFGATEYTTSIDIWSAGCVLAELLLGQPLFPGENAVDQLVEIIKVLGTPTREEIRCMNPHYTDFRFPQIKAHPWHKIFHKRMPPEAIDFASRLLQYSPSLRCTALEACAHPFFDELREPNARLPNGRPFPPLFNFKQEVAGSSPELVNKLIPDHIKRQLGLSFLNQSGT

[1] = target: T3, GST-BSU1-KL (N-terminal Kelch domain)
T3 chain: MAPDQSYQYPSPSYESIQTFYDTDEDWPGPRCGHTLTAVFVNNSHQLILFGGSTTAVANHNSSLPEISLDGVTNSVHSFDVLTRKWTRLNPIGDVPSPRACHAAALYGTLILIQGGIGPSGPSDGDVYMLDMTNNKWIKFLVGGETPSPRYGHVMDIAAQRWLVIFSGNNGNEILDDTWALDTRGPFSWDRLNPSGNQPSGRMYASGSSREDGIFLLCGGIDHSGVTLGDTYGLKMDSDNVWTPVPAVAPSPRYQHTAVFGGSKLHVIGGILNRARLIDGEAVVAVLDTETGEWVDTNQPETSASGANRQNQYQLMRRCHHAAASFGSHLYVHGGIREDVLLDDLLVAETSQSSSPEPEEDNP

B1: GST-AtSK12 (protein)
chain: MASVGIEPSAAVRESTGNVTDADRLPEEMKDMKIQDDKEMEATIVNGNVTETGHIIVTTIGGRNGQPKQTISYMAERVVGHGSFGVVFQAKCLETGETVAIKKVLQDRRYKNRELQTMRLLDHPNVVSLKHCFFSTTEKDELYLNLVLEYVPETVHRVIKHYNKLNQRMPLVYVKLYTYQIFRSLSYIHRCIGVCHRDIKPQNLLVNPHTHQVKLCDFGSAKVLVKGEPNISYICSRYYRAPELIFGATEYTTAIDVWSAGCVLAELLLGQPLFPGESGVDQLVEIIKVLGTPTREEIKCMNPNYTEFKFPQIKAHPWHKIFHKRMPPEAVDLVSRLLQYSPNLRCAALDSLVHPFFDELRDPNARLPNGRFLPPLFNFKPHELKGVPVEMVAKLVPEHARKQCPWLSL
- phosphorylation of MBP-BZR1 (in vitro kinase assay with 32P-γATP) (MBP-BZR1, Q8S307): AtSK12 strongly phosphorylates BZR1 in vitro

B2: GST-BSU1-P (C-terminal phosphatase domain) (protein)
chain: DNYMLLDDYLMDEPKPLSSEPEASSFIMRSTSEIAMDRLAEAHNLPTIENAFYDSAIEGYVPLQHGAETVGNRGGLVRTASLDQSTQDLHKKVISTLLRPKTWTPPANRDFFLSYLEVKHLCDEVEKIFMNEPTLLQLKVPIKVFGDIHGQYGDLMRLFHEYGHPSVEGDITHIDYLFLGDYVDRGQHSLEIIMLLFALKIEYPKNIHLIRGNHESLAMNRIYGFLTECEERMGESYGFEAWLKINQVFDYLPLAALLEKKVLCVHGGIGRAVTIEEIENIERPAFPDTGSMVLKDILWSDPTMNDTVLGIVDNARGEGVVSFGPDIVKAFLERNGLEMILRAHECVIDGFERFADGRLITVFSATNYCGTAQNAGAILVIGRDMVIYPKLIHPHPPPISSSEEDYTDKAWMQELNIEMPPTPARGESSE
- BIN2 phosphorylation of MBP-BZR1 (in vitro kinase assay with 32P-γATP) (GST-BIN2, Q39011): The phosphatase domain of BSU1 reduced BIN2 phosphorylation of BZR1

B3: GST-BIN2 (protein)
chain: T2 chain
- BIN2 phosphorylation of MBP-BZR1 (in vitro kinase assay with 32P-γATP) [1]: the Kelch repeat domain showed no effect
